Assay results: patent US20220363763A1
One block for each substance: values may come before it.

Columns and labels:
[1] = target: human LAG3 on cells (human) (UniProt P18627); assay: flow cytometry (MFI) on activated CD4 T cells, lower panel; EC50 table has no unit, x axis Concentration (nM); fit value of a flat control curve
[2] = target: human LAG3 on cells (human) (UniProt P18627); assay: flow cytometry (MFI) on Jurkat-LAG3 cells, upper panel; EC50 table has no unit, x axis Concentration (nM); fit value of a flat control curve
[3] = target: human PD-L1 expressed on mammalian cells (human) (UniProt Q9NZQ7); assay: cell-based binding on Raji-PDL1 cells (FACS by paragraph 328; the y axis of the sheet is labelled IL2 (ng/ml)); EC50 table has no unit, x axis Concentration (nM)
[4] = target: human PD-L1-Fc protein (human) (UniProt Q9NZQ7); assay: ELISA on coated human PD-L1-Fc; EC50 table has no unit, x axis Ab(nM); fit value of a flat control curve
Sequence of human PD-L1-Fc protein (human) (Q9NZQ7 19-239 limits assumed): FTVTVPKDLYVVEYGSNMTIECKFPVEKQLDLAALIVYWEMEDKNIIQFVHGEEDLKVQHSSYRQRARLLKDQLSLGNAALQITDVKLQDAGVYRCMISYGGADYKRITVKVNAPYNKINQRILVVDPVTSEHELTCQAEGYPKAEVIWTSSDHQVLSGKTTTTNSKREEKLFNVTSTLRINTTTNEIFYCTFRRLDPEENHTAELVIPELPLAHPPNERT

Sequence of human LAG3 on cells (human) (P18627 23-525): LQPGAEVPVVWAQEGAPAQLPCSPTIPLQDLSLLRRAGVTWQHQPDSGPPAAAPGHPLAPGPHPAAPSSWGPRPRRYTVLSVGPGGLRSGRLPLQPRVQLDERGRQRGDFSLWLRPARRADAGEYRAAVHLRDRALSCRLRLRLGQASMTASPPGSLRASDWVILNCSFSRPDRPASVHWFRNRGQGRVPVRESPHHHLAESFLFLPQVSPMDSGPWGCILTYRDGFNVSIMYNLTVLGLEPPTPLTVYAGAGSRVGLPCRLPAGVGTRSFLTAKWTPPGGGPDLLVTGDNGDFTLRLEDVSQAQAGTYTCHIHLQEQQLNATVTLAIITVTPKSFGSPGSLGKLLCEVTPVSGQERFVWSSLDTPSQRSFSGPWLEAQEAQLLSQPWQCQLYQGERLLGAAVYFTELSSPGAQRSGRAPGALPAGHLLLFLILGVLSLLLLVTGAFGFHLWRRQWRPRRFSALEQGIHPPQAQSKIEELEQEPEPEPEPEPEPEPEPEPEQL
Sequence of human PD-L1 expressed on mammalian cells (human) (Q9NZQ7 19-290): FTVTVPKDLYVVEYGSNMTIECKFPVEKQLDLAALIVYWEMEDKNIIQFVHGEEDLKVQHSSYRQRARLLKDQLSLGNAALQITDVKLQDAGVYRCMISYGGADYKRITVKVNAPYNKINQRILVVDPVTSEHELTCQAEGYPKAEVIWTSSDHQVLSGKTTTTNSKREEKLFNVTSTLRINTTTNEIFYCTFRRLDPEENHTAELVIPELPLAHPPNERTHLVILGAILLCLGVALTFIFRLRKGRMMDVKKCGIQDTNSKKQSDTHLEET

EC50 [1]: 3590 µM
EC50 [2]: 0.000463 µM
Substance: IgG (antibody)

EC50 [3]: 0.000891 µM
Substance: Tecentriq (antibody)

EC50 [4]: 0.0848 µM
Substance: hIgG (antibody)
